# Source: patent publication US20210393713A1 (published 2021)
# B1: LY6A as used in SPR (immobilized on the sensor chip, or monomeric in solution) (receptor)
# chain: LECYQCYGVPFETSCPSITCPYPDGVCVTQEAAVIVDSQTRKVKNNLCLPICPPNIESMEILGTKVNVKTSCCQEDLCNVAVPNG
# Target: AAV-PHP.B capsid (AAV9 variant with the […] insert)
# Assay: SPR
binder,measurement,value
B1,Kd,0.119 nM
